Assay results taken from patent US20090099193.

Molecular target: TK substrate 1 (HTRF KinEASE-TK kit; Cisbio Inc.)

B1: EML4-ALK fusion polypeptide v3 having the FLAG tag at the N-terminus (protein)
chain: MDGFAGSLDDSISAASTSDVQDRLSALESRVQQQEDEITVLKAALADVLRRLAISEDHVASVKKSVSSKGQPSPRAVIPMSCITNGSGANRKPSHTSAVSIAGKETLSSAAKSGTEKKKEKPQGQREKKEESHSNDQSPQIRASPSPQPSSQPLQIHRQTPESKNATPTKSIKRPSPAEKSHNSWENSDDSRNKLSKIPSTPKLIPKVTKTADKHKDVIINQAKMSTRKKNSQVYRRKHQELQAMQMELQSPEYKLSKLRTSTIMTDYNPNYCFAGKTSSISDLKEVPRKNITLIRGLGHGAFGEVYEGQVSGMPNDPSPLQVAVKTLPEVCSEQDELDFLMEALIISKFNHQNIVRCIGVSLQSLPRFILLELMAGGDLKSFLRETRPRPSQPSSLAMLDLLHVARDIACGCQYLEENHFIHRDIAARNCLLTCPGPGRVAKIGDFGMARDIYRASYYRKGGCAMLPVKWMPPEAFMEGIFTSKTDTWSFGVLLWEIFSLGYMPYPSKSNQEVLEFVTSGGRMDPPKNCPGPVYRIMTQCWQHQPEDRPNFAIILERIEYCTQDPDVINTALPIEYGPLVEEEEKVPVRPKDPEGVPPLLVSQQAKREEERSPAAPPPLPTTSSGKAAKKPTAAEVSVRVPRGPAVEGGHVNMAFSQSNPPSELHRVHGSRNKPTSLWNPTYGSWFTEKPTKKNNPIAKKEPHERGNLGLEGSCTVPPNVATGRLPGASLLLEPSSLTANMKEVPLFRLRHFPCGNVNYGYQQQGLPLEAATAPGAGHYEDTILKSKNSMNQPGP
With B1 the “count of HTRF (phosphorylation of the peptide substrate), 100 uM ATP against no ATP” value was “increased by about 20 times by the addition of ATP compare to no addition of ATP”.
